# Values joined by “and” are separate entries in the source; they are usually repeats but may differ in a detail not shown here. Equal values may be shown once.
# Key:
# [1] = target: HIV-1 NL4-3 matrix protein p17 (MA) L20K, in mature virions or VLPs (HIV-1 (NL4-3)); experiment: SDS-resistant oligomer bands on SDS-PAGE and Western blot
# [2] = target: HIV-1 NL4-3 matrix protein p17 (MA) L20K/E73K/A82T, in mature virions or VLPs (HIV-1 (NL4-3)); experiment: as above
# [3] = target: purified recombinant MA L20K/E73K/A82T mutant protein (HIV-1); experiment: SDS-PAGE of purified protein (SDS-resistant oligomer bands)
# [4] = target: HIV-1 NL4-3 Gag polyprotein precursor Pr55Gag with MA-L20K/E73K/A82T, uncleaved in immature VLPs (PR-D25N) (HIV-1 (NL4-3)); experiment: cryo-EM structure
substance,measurement,setting,value
"HIV-1 NL4-3 matrix protein p17 (MA) L20K, in mature virions or VLPs (natural protein)",stoichiometry N,[1],2 and 3
"HIV-1 NL4-3 matrix protein p17 (MA) L20K/E73K/A82T, in mature virions or VLPs (natural protein)",stoichiometry N,[2],2 and 3
purified recombinant MA L20K/E73K/A82T mutant protein (domain or fragment),stoichiometry N,[3],2 and 3
"HIV-1 NL4-3 Gag polyprotein precursor Pr55Gag with MA-L20K/E73K/A82T, uncleaved in immature VLPs (PR-D25N) (natural protein)",stoichiometry N,[4],3 and 6

# Source: PMC12063641
